Legend:
[1] = biological target: the molecule itself; assay: crystal structure; sitting-drop vapour diffusion at 20 °C; data at 100 K
[2] = biological target: T1, Drosophila melanogaster full-length secreted semaphorin-2a (Sema2a_(full)) (Drosophila melanogaster, UniProt Q24323 26-724); assay: MST; plexin-mVenus kept constant, unlabelled semaphorin titrated (1:1 dilution series); 25 °C; 15 mM HEPES pH 7.4, 150 mM NaCl, 2 mM CaCl2, 0.005% Tween-20; 1 h incubation at room temperature; apparent Kd; conditions: both partners purified
T1 construct: Semaphorin-2a, Drosophila melanogaster, residues 26D-724V; Disulfide-linked dimer in solution; source: HEK293T (37 °C), transient transfection, purified (HisTrap, SEC)
T1 sequence (looked up): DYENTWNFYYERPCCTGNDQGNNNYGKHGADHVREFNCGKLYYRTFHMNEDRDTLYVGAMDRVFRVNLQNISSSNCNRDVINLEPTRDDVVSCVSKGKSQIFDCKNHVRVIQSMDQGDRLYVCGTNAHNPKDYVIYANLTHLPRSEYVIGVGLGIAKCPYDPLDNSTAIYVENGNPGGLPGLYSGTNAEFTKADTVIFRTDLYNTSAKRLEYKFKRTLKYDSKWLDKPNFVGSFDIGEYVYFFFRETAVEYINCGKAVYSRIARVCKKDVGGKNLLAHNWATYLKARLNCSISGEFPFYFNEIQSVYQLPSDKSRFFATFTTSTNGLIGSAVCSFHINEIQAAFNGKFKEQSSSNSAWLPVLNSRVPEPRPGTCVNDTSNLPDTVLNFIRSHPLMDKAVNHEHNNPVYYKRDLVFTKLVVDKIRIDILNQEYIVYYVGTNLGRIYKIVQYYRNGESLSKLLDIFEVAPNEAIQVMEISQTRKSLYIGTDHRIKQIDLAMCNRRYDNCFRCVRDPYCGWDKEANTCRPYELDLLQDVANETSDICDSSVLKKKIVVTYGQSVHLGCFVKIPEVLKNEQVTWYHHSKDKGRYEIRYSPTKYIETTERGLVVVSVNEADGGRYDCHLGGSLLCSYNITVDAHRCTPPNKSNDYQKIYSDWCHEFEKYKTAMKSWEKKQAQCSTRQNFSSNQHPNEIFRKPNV

[3] = biological target: T2, mouse Sema3A (residues 26–730, furin sites mutated) with C-terminal 3C-Avi-His6 tag (mouse, UniProt O08665 26-730, R551A (printed: R551, 555A) | R555A (printed: R551, 555A)); assay: pull-down; HEK293T co-transfected with a His6-tagged and a TwinStrep-tagged semaphorin; conditioned medium 5 days post transfection; two-step affinity chromatography (HisTrap, then StrepTactin); western blot and SDS-PAGE of flow-through and eluate; conditions: partners not purified
T2 construct: Semaphorin-3A, mouse, residues 26-730, furin cleavage sites mutated (R551, 555A); also called Sema3A-His6; source: HEK293T, transient co-transfection, secreted into conditioned medium; not shown: His6, C-terminal, kept
T2 sequence (looked up): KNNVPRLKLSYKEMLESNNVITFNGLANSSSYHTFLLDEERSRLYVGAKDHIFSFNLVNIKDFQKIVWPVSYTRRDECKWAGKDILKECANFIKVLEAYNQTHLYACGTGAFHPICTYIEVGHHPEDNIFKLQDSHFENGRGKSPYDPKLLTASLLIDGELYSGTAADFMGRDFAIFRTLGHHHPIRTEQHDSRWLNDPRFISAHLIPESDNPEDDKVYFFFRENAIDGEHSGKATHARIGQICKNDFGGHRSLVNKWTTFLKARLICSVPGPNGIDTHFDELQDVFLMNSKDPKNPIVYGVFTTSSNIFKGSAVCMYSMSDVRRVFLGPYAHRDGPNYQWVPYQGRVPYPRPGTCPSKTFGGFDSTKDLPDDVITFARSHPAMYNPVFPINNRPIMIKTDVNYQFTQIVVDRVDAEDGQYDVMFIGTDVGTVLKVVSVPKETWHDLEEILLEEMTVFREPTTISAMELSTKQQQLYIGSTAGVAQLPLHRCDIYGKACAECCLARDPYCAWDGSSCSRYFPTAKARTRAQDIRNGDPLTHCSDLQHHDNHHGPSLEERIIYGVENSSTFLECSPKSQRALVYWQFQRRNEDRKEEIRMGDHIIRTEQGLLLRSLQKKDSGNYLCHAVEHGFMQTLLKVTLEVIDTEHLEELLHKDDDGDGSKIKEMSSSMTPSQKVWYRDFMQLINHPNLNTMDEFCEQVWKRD

B1: Drosophila melanogaster Sema2a1–3 (sema, PSI and Ig-like domains) (domain or fragment, UniProt Q24323 27-671, looked up)
chain: YENTWNFYYERPCCTGNDQGNNNYGKHGADHVREFNCGKLYYRTFHMNEDRDTLYVGAMDRVFRVNLQNISSSNCNRDVINLEPTRDDVVSCVSKGKSQIFDCKNHVRVIQSMDQGDRLYVCGTNAHNPKDYVIYANLTHLPRSEYVIGVGLGIAKCPYDPLDNSTAIYVENGNPGGLPGLYSGTNAEFTKADTVIFRTDLYNTSAKRLEYKFKRTLKYDSKWLDKPNFVGSFDIGEYVYFFFRETAVEYINCGKAVYSRIARVCKKDVGGKNLLAHNWATYLKARLNCSISGEFPFYFNEIQSVYQLPSDKSRFFATFTTSTNGLIGSAVCSFHINEIQAAFNGKFKEQSSSNSAWLPVLNSRVPEPRPGTCVNDTSNLPDTVLNFIRSHPLMDKAVNHEHNNPVYYKRDLVFTKLVVDKIRIDILNQEYIVYYVGTNLGRIYKIVQYYRNGESLSKLLDIFEVAPNEAIQVMEISQTRKSLYIGTDHRIKQIDLAMCNRRYDNCFRCVRDPYCGWDKEANTCRPYELDLLQDVANETSDICDSSVLKKKIVVTYGQSVHLGCFVKIPEVLKNEQVTWYHHSKDKGRYEIRYSPTKYIETTERGLVVVSVNEADGGRYDCHLGGSLLCSYNITVDAHRCTPPNK
notes: Semaphorin-2a, Drosophila melanogaster, sema-PSI-Ig, residues 27Y-671K; Disulfide-linked dimer in the crystal; source: HEK293S-GnTI- or HEK293T with kifunensine, transient transfection, purified (HisTrap, SEC)
**Q.** Does B1 bind [1]?
**A.** Result: binds

B2: Drosophila melanogaster PlexB1–4-mVenus (receptor, UniProt Q9V4A7 35-730, looked up)
chain: EELPAQALSPLNDIVAQFNLPSIPVQSTASSYGNRSIGNNIESVRDSQSKNYFTHMSFDFMHNVLFAGATNKILKLNENLRVLAEAVTGPLHDSPQCHAGGCPEDIETSLVNNFNKILVVSYAHDGILIACGSIRQGACEIYSLPRFPATPQFFAVPLAANDENASTYAFVGPARYAWKEEDILYVGTTFTNVGDYRHDVPAISSRRLDDLNYAEFSIQQSIINIDVKYRDHFLVDYIYGFNSSEYAYFIIVQKKSHLADEAGYVTRLARICITDPNYDSYTEITVQCTATENNVDYNIVRDAKVTPASHKLAQKMGIKKDDHVLVTVFSPSREISNQPESKSAMCIYSIKDIEDMFIENIHLCFNGTTKDRNLGYISGTINDGRCPIVGSLGNIYNFCSVGLKISGVSPITAHALFHFDNVSVTSVTATSTTDQQHSLAFLGTNMGVIKKVLLSGQSPGEYEEIVVDAGNRILPNTMMSPKKDFLYVLSQRKITKLRIEHCSVYTNCSACLESRDPFCGWCSLEKRCTVRSTCQRDTSASRWLSLGSGQQCIEFESIIPEKIPISELSHLHLIIRTLPEPFNAKYRCVFGNSTPIDAEILENGLGCATPPLDERPLIPTNTDHILVPLSVRSSETNKDFVSRNFAFFDCSHHGNCQECLQSSWGCNWCIFDNKCVHKSLQCRNIENAVSTVGHCP
notes: Plexin B, Drosophila melanogaster, domains 1-4 of the ectodomain, residues 35E-730P; source: High Five cells (Trichoplusia ni), baculovirus (pBacPAK9, GP64 signal peptide), purified (HisTrap, SEC); not shown: mVenus, C-terminal, kept
**Q.** Which Kd [2] does the source give for B2 here?
**A.** Its Kd is 25 nM.

B3: mouse Sema3C (residues 22–711, furin sites mutated) with C-terminal TwinStrep tag (ligand, UniProt Q62181 22-711, looked up)
chain: SSQPQARVYLTFDELRETKTSEYFSLSHQQLDYRILLMDEDQDRIYVGSKDHILSLNINNISQEPLSVFWPASTIKVEECKMAGKDPTHGCGNFVRVIQTFNRTHLYVCGSGAFSPVCTYLNRGRRSEDQVFMIDSKCESGKGRCSFNPNVNTVSVMINEELFSGMYIDFMGTDAAIFRSLTKRNAVRTDQHNSKWLSEPMFVDAHVIPDGTDPNDAKVYFFFKERLTDNNRSTKQIHSMIARICPNDTGGQRSLVNKWTTFLKARLVCSVTDEDGPETHFDELEDVFLLETDNPRTTLVYGIFTTSSSVFKGSAVCVYHLSDIQTVFNGPFAHKEGPNHQLISYQGRIPYPRPGTCPGGAFTPNMRTTKDFPDDVVTFIRNHPLMYNSIYPIHRRPLIVRIGTDYKYTKIAVDRVNAADGRYHVLFLGTDRGTVQKVVVLPTNSSASGELILEELEVFKNHVPITTMKISSKKQQLYVSSNEGVSQVSLHRCHIYGTACADCCLARDPYCAWDGHSCSRFYPTGKARSRAQDVRHGNPLTQCRGFNLKAYRNAAEIVQYGVRNNSTFLECAPKSPQASIKWLLQKDKDRRKEVKLNERIIATSQGLLIRSVQDSDQGLYHCIATENSFKQTIAKINFKVLDSEMVAVVTDKWSPWTWAGSVRALPFHPKDILGAFSHSEMQLINQYCKD
notes: Semaphorin-3C, mouse, residues 22-711, furin cleavage sites mutated (R548, 552A); also called Sema3C-TwinStrep; source: HEK293T, transient co-transfection, secreted into conditioned medium; not shown: TwinStrep, C-terminal, kept
**Q.** For B3, which “stoichiometry N” value [3] is on record?
**A.** The value was 1.

From paper PMC6695400, “Diversity of oligomerization in Drosophila semaphorins suggests a mechanism of functional fine-tuning” (Nature Communications, 2019)
